Assay results: paper PMC8323339 (Immunity, 2021)
Where two headings read alike, the source gives them in different places.

Tests used:
[1] = molecular target: T1, SARS-CoV-2 Spike receptor-binding domain (RBD), wild type, as used for BLI (SARS-CoV-2, wild type, UniProt P0DTC2); experiment: BLI
[2] = molecular target: T1, SARS-CoV-2 Spike receptor-binding …
[3] = molecular target: SARS-CoV-2 RBD, as used for crystallization (SARS-CoV-2, wild type, UniProt P0DTC2); experiment: crystal structure

B1: C080 IgG (antibody, V domains shown)
VH: EVQLVQSGAEVKKPGESLNISCKASGYSFTIYWIAWVRQLPGKGLEWMGIIYPGDSDTRYSPSFQGQVTISADKSISTAYLQWRSLKASDSAVYYCARGVAVDWYFDLWGRGTLVTVSS
VL: QSVLTQPPSVSGAPGQRVTISCAGSSSNIGAGFDVYWYQQLPGTAPKLLIYGNNNRPSGVPDRFSGSKSGTSASLAITGLQAEDEADYYCQSSGSVLSDLYVFGTGTKVTVL
- binding result [1]: binds

B2: C549 (antibody, V domains shown)
VH: QVQLVQSGAEVKKPGSSVKVSCKASGGTFSTSAISWVRQAPGQGLEWMGGIIPFFGTPNYAQKFQGRVTIIADESTTTAYMELSGLRFEDSAVYYCARREPYGPRDYYYFFGMDVWGPGTTVTVSS
VL: QSALTQPPFASASLGASVTLTCTLSSDYSYYKVDWYQQRPGKGPRFVIRVGPGGIVGSKGDGFPDRFSVLGSGLNRSLTINNIQEEDEGDYHCGADEGSGGTFVGVFGGGTKLTV
- binding result [2]: binds

B3: C099 IgG (antibody, V domains shown)
VH: EVQLVESGGGLIQPGGSLRLSCAASGITVSSNYMSWVRQAPGKGLEWVSVMYAGGSTFYADSVKGRFTISRDDSKNTLFLQMNSLRAEDTAIYYCARDLYSSGGTDIWGQGTMVTVSS
VL: EIVLTQSPGTLSLSPGERATLSCRASQSIGSSYLAWYQQKPGLAPRLLIYGASRRATGIPDKFSGSGSGADFTLTISRLEPEDFAVYYCQQYGSSPGTFGQGTKVEIK
- binding result [1]: binds

B4: C099 Fab (Fab, V domains shown)
VH: EVQLVESGGGLIQPGGSLRLSCAASGITVSSNYMSWVRQAPGKGLEWVSVMYAGGSTFYADSVKGRFTISRDDSKNTLFLQMNSLRAEDTAIYYCARDLYSSGGTDIWGQGTMVTVSS
VL: EIVLTQSPGTLSLSPGERATLSCRASQSIGSSYLAWYQQKPGLAPRLLIYGASRRATGIPDKFSGSGSGADFTLTISRLEPEDFAVYYCQQYGSSPGTFGQGTKVEIK
- binding result [3]: binds

B5: C548 IgG (antibody, V domains shown)
VH: QVQLVQSGAEVKKPGSSVKVSCKASGGTFSSYAISWVRQAPGQGLEWMGGIIPIFGTANYAQKFQGRVTITADESTSTAYMELSSLRSEDTAVYYCARREAYGPRDYYYYYGMDVWGQGTTVTVSS
VL: QSALTQPPSASASLGASVTLTCTLSSGYSNYKVDWYQQRPGKGPRFVMRVGTGGIVGSKGDGIPDRFSVLGSGLNRYLTIKNIQEEDESDYHCGADQGSGSNFVGVFGGGTKLTV
- binding result [1]: binds
